Laboratory results: patent US20110045604A1 (UNIVERSITY OF CHICAGO, published 2011)
Values belong to the binder of their own block, whether it stands above or below them.

Molecular target: T1, Erbin PDZ (UniProt Q96RT1 1321-1410, limits assumed)
T1 construct: domain: PDZ; Isolated PDZ domain without FN3; Expressed in E. coli from a pHFT2 derivative; also called wild-type PDZ domain; parent PDZ
Assay: SPR (BIAcore 2000); PDZ immobilised on Ni-NTA chip, SUMO-peptide fusion as analyte
Experimental: Affinity Measurements. SPR measurements were performed in 20 mM HEPES/NaOH buffer (pH 7.4), 150 mM NaCl, and 0.005% Tween 20 at 25° C. on a BIAcore 2000 instrument. The affinity clamp or the linker mutant was immobilized on a Ni-NTA chip to the level of approximate 300 RU, and different concentrations of SUMO-peptide fusion protein were injected. The kinetic data were analyzed using the one-to-one binding model in BIAEvaluation (BIAcore).

T1 sequence (Q96RT1 1321-1410 limits assumed): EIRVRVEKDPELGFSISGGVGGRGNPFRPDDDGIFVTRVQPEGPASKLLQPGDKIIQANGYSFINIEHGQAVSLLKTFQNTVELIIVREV

Kd: 2.2 µM
B1: SUMO-ARVCF peptide fusion protein (peptide)
chain: PQPVDSWV
notes: Analyte in SPR; also called wild-type ARVCF peptide; AVFCF peptide; not shown: yeast SUMO, fusion partner N-terminal to the peptide

Kd: 6.3 µM
B2: SUMO-δ-catenin peptide fusion protein (peptide)
peptide: {yeast SUMO}-PASPDSWV-OH
modifications: not fully specified
notes: The methods say that SUMO-peptide fusion proteins were injected in SPR; also called C-terminus of δ-catenin; not shown: The yeast SUMO fusion partner N-terminal to the peptide, and any junction or tag residues
